# Data: the Human Domainome abundance scans (Beltran et al. 2025)
# ± gives the uncertainty stated by the source.
# B1: Chromodomain-helicase-DNA-binding protein 3, residues 374 to 426; numbered along this chain, Q12873 (parent)
# chain: YETDHQDYCEVCQQGGEIILCDTCPRAYHLVCLDPELDRAPEGKWSCPHCEKE
# Variants of: B1
# Experiment: abundance fitness (aPCA) (normalised: wild type 0, dead -1); higher = more abundant; growth selection in yeast, the domain comes from the species named
# Settings: Homo sapiens
row,Variant,abundance fitness
1,Y28P,-0.837 ± 0.2
2,Y28G,-0.191 ± 0.14
3,Y28Q,-0.445 ± 0.14
4,Y28A,0.122 ± 0.12
5,Y28V,-0.284 ± 0.11
6,Y28F,-0.145 ± 0.12
7,Y28W,0.143 ± 0.14
8,Y28L,-0.059 ± 0.1
9,Y28I,0.013 ± 0.13
10,Y28D,-0.593 ± 0.18
11,Y28T,-0.203 ± 0.14
12,Y28K,-0.578 ± 0.22
13,Y28N,-0.377 ± 0.14
14,Y28H,0.148 ± 0.13
15,D22Y,-0.142 ± 0.22
16,D22T,-0.222 ± 0.16
17,D22Q,0.557 ± 0.18
18,D22G,-0.191 ± 0.16
19,D22P,-0.109 ± 0.18
20,D22C,-0.229 ± 0.18
21,D22L,-0.171 ± 0.14
22,D22H,-0.388 ± 0.28
23,D22I,-0.021 ± 0.24
24,D22F,-0.344 ± 0.19

row,Variant,abundance fitness
1,D22N,-0.008 ± 0.15
2,D22A,-0.31 ± 0.27
3,D22W,-0.013 ± 0.17
4,D22M,0.008 ± 0.28
5,D22R,0.053 ± 0.14
6,D22V,-0.204 ± 0.12
7,D22S,0.048 ± 0.15
8,G15M,0.084 ± 0.21
9,G15V,-0.609 ± 0.21
10,G15D,-0.21 ± 0.27
11,G15L,-0.366 ± 0.21
12,G15A,0.329 ± 0.18
13,G15C,-0.823 ± 0.34
14,G15T,0.088 ± 0.18
15,G15Q,-0.434 ± 0.27
16,G15E,-0.202 ± 0.19
17,G15W,-0.121 ± 0.2
18,G15Y,-0.03 ± 0.26
19,G15K,0.112 ± 0.27
20,G15P,-0.488 ± 0.31
21,G15N,-0.065 ± 0.27
22,P25H,-0.249 ± 0.26
23,P25A,0.092 ± 0.14
24,P25Q,-0.39 ± 0.23

row,Variant,abundance fitness
1,P25S,-0.116 ± 0.13
2,P25I,-0.261 ± 0.33
3,P25N,-0.204 ± 0.4
4,P25R,-0.235 ± 0.12
5,P25C,0.04 ± 0.18
6,P25M,-0.227 ± 0.24
7,P25D,-0.482 ± 0.28
8,P25T,-0.004 ± 0.14
9,P25K,-0.385 ± 0.18
10,P25W,-0.144 ± 0.14
11,P25F,-0.021 ± 0.37
12,L30F,-0.038 ± 0.15
13,L30Y,0.098 ± 0.13
14,L30S,-0.202 ± 0.097
15,L30V,-0.014 ± 0.1
16,L30I,-0.27 ± 0.14
17,L30A,0.053 ± 0.11
18,L30G,-0.014 ± 0.13
19,L30T,-0.067 ± 0.11
20,L30C,0.072 ± 0.12
21,L30N,-0.197 ± 0.18
22,L30K,-0.121 ± 0.14
23,L30D,-0.264 ± 0.17
24,L30P,0.021 ± 0.11

row,Variant,abundance fitness
1,L30Q,-0.189 ± 0.14
2,L30H,-0.059 ± 0.13
3,L30M,0.067 ± 0.088
4,L30E,-0.155 ± 0.14
5,C21V,-0.57 ± 0.13
6,C21N,-0.903 ± 0.21
7,C21L,-0.74 ± 0.13
8,C21E,-1.15 ± 0.28
9,C21D,-0.868 ± 0.26
10,C21T,-0.381 ± 0.17
11,C21K,-0.846 ± 0.2
12,C21A,-0.778 ± 0.16
13,C21Q,-0.822 ± 0.2
14,C21Y,-0.692 ± 0.16
15,C21P,-0.984 ± 0.34
16,C21M,-0.901 ± 0.21
17,C21W,-0.831 ± 0.15
18,C21I,-0.818 ± 0.21
19,C21S,-0.569 ± 0.13
20,C21H,-0.806 ± 0.25
21,C21G,-0.637 ± 0.12
22,V31S,-0.061 ± 0.096
23,V31M,-0.03 ± 0.12
24,V31L,-0.17 ± 0.094

row,Variant,abundance fitness
1,V31Q,-0.012 ± 0.13
2,V31I,-0.245 ± 0.12
3,V31C,-0.254 ± 0.15
4,V31T,-0.3 ± 0.11
5,V31E,-0.229 ± 0.14
6,V31N,-0.314 ± 0.12
7,V31K,-0.132 ± 0.15
8,V31W,-0.26 ± 0.14
9,V31H,0.038 ± 0.13
10,V31F,-0.09 ± 0.12
11,V31A,0.158 ± 0.12
12,V31Y,-0.297 ± 0.17
13,V31D,-0.18 ± 0.15
14,V31G,-0.094 ± 0.13
15,C32F,-1.05 ± 0.11
16,C32H,-0.163 ± 0.085
17,C32D,-0.718 ± 0.16
18,C32A,-1.09 ± 0.14
19,C32I,-1.06 ± 0.12
20,C32K,-0.958 ± 0.21
21,C32E,-0.663 ± 0.24
22,I18H,0.063 ± 0.16
23,I18F,-0.071 ± 0.15
24,I18A,0.024 ± 0.1

row,Variant,abundance fitness
1,I18L,-0.022 ± 0.099
2,I18K,-0.124 ± 0.15
3,I18R,-0.12 ± 0.091
4,I18Y,0.162 ± 0.13
5,I18T,0.131 ± 0.14
6,I18Q,-0.107 ± 0.14
7,I18W,-0.152 ± 0.14
8,I18E,0.13 ± 0.14
9,I18P,-0.191 ± 0.12
10,I18G,-0.087 ± 0.11
11,I18V,-0.297 ± 0.11
12,I18C,-0.521 ± 0.19
13,I18S,-0.26 ± 0.12
14,I18N,-0.218 ± 0.18
15,T23V,-0.162 ± 0.17
16,T23H,-0.146 ± 0.13
17,T23D,-0.308 ± 0.2
18,T23P,-0.596 ± 0.14
19,T23R,-0.179 ± 0.11
20,T23W,-0.631 ± 0.19
21,T23L,-0.22 ± 0.099
22,T23Y,0.05 ± 0.12
23,T23F,-0.035 ± 0.11
24,T23K,-0.696 ± 0.19

row,Variant,abundance fitness
1,T23E,-0.077 ± 0.16
2,T23Q,-0.455 ± 0.27
3,T23S,0.032 ± 0.1
4,T23M,0.024 ± 0.2
5,T23A,-0.337 ± 0.14
6,T23G,-0.248 ± 0.2
7,T23I,-0.189 ± 0.12
8,T23N,0.122 ± 0.15
9,R26V,-0.363 ± 0.1
10,R26P,-0.655 ± 0.17
11,R26C,-0.669 ± 0.24
12,R26L,0.155 ± 0.1
13,R26S,0.087 ± 0.1
14,R26Q,0.417 ± 0.28
15,R26I,-0.445 ± 0.17
16,R26Y,-0.148 ± 0.15
17,R26A,-0.202 ± 0.11
18,R26M,-0.106 ± 0.16
19,R26G,-0.046 ± 0.091
20,R26H,-0.17 ± 0.18
21,R26D,-0.159 ± 0.15
22,R26N,-0.169 ± 0.16
23,R26E,-0.123 ± 0.13
